± gives the uncertainty stated by the source.
B1: Retinoic acid receptor beta, residues 85 to 161; numbered along this chain, P10826 (parent)
chain: YKPCFVCQDKSSGYHYGVSACEGCKGFFRRSIQKNMIYTCHRDKNCVINKVTRNRCQYCRLQKCFEVGMSKESVRND

Variants of: B1
Assay: abundance fitness (aPCA) (normalised: wild type 0, dead -1); higher = more abundant; growth selection in yeast, the domain comes from the species named
Conditions: Homo sapiens

| Variant | abundance fitness |
| --- | --- |
| YKPCFVCQDKSSGYHYGVSACEGCKGFFRRSIQKNMIYTCHRDKNCVINKVTRNRCQYCRLQKCFEVGMSKEKVRND | 0.131 ± 0.052 |
| YKECFVCQDKSSGYHYGVSACEGCKGFFRRSIQKNMIYTCHRDKNCVINKVTRNRCQYCRLQKCFEVGMSKESVRND | 0.136 ± 0.055 |
| YKPCFVCQDKSSYYHYGVSACEGCKGFFRRSIQKNMIYTCHRDKNCVINKVTRNRCQYCRLQKCFEVGMSKESVRND | -0.206 ± 0.088 |
| YKPCFVCQDKSSSYHYGVSACEGCKGFFRRSIQKNMIYTCHRDKNCVINKVTRNRCQYCRLQKCFEVGMSKESVRND | -0.055 ± 0.059 |
| YKPCFVCQDKSSGYHYGVSACMGCKGFFRRSIQKNMIYTCHRDKNCVINKVTRNRCQYCRLQKCFEVGMSKESVRND | -0.224 ± 0.066 |
| YKPCFVCQDKSSGYHYGVSACEGCKGFFRRSIQKNAIYTCHRDKNCVINKVTRNRCQYCRLQKCFEVGMSKESVRND | 0.132 ± 0.045 |
| YKPCFVCQDKSSGYHYGVSACEGCKGFFRRSIQKNMIYTCHRPKNCVINKVTRNRCQYCRLQKCFEVGMSKESVRND | -0.471 ± 0.12 |
| YKPCFVCQDKSSGYHYGVSACEGCKGFFRRSIQKNMIYTCHRTKNCVINKVTRNRCQYCRLQKCFEVGMSKESVRND | 0.007 ± 0.055 |
| YKPCFVCQDKSSGYHYGVSACEGCKGFFRRSIQKNMIYTCHRQKNCVINKVTRNRCQYCRLQKCFEVGMSKESVRND | -0.019 ± 0.074 |
| YKPCFVCQDKSSGYHYGVSACEGCKGFFRRSIQKNMIYTCDRDKNCVINKVTRNRCQYCRLQKCFEVGMSKESVRND | 0.051 ± 0.053 |
| YKPCFVCQDKSSGYHYGLSACEGCKGFFRRSIQKNMIYTCHRDKNCVINKVTRNRCQYCRLQKCFEVGMSKESVRND | -0.353 ± 0.059 |
| YKPCFVCQDKSSGYHYGESACEGCKGFFRRSIQKNMIYTCHRDKNCVINKVTRNRCQYCRLQKCFEVGMSKESVRND | -0.421 ± 0.075 |
| YKPCFVCQDKSSGYHYGVSACEGCKGFFRRSIQKNMIYTCHRDKNCVINKVTRNRCPYCRLQKCFEVGMSKESVRND | 0.141 ± 0.07 |
| YKPCFVCQDKSSGYHYGVSACEGCKGFFRRSIQKNMIYTCHRDKNCVINKVTRNRCVYCRLQKCFEVGMSKESVRND | -0.385 ± 0.053 |
| YKPCFVCQDKSSGYHYGVSACEGCKGFFRRSIQKNMIYTCHRDKNCVINKVTRNRYQYCRLQKCFEVGMSKESVRND | -0.567 ± 0.19 |
| YKPCFVCQDKSSGYHYGVSACEGCKGFFRRSIQKNMIYTCHRDKNCVINKVTSNRCQYCRLQKCFEVGMSKESVRND | 0.126 ± 0.042 |
| YKPCFVCQDKSSGYHYGVSACEGCKGFFRRSIQKNMIYTCHRDKNCVINKVTCNRCQYCRLQKCFEVGMSKESVRND | 0.084 ± 0.071 |
| YKPCFVCQDKSSGYHYGVSRCEGCKGFFRRSIQKNMIYTCHRDKNCVINKVTRNRCQYCRLQKCFEVGMSKESVRND | -0.785 ± 0.083 |

| Variant | abundance fitness |
| --- | --- |
| YKPCFVCQDKSSGYHYGVSVCEGCKGFFRRSIQKNMIYTCHRDKNCVINKVTRNRCQYCRLQKCFEVGMSKESVRND | -0.07 ± 0.042 |
| YKPCFVCQDKSPGYHYGVSACEGCKGFFRRSIQKNMIYTCHRDKNCVINKVTRNRCQYCRLQKCFEVGMSKESVRND | -0.227 ± 0.11 |
| HKPCFVCQDKSSGYHYGVSACEGCKGFFRRSIQKNMIYTCHRDKNCVINKVTRNRCQYCRLQKCFEVGMSKESVRND | 0.055 ± 0.13 |
| YKPCFVCQDKSSGGHYGVSACEGCKGFFRRSIQKNMIYTCHRDKNCVINKVTRNRCQYCRLQKCFEVGMSKESVRND | -0.244 ± 0.069 |
| YKPCFVCQDKSSGYHYGVSACEGCKGAFRRSIQKNMIYTCHRDKNCVINKVTRNRCQYCRLQKCFEVGMSKESVRND | -0.748 ± 0.095 |
| YKPCFVCQDKSSGYHYGVSACEGCKGLFRRSIQKNMIYTCHRDKNCVINKVTRNRCQYCRLQKCFEVGMSKESVRND | -0.886 ± 0.12 |
| YKPCFVCQDKSSGYHYGVSACEGCKGFFRRSIQKNMNYTCHRDKNCVINKVTRNRCQYCRLQKCFEVGMSKESVRND | 0.043 ± 0.081 |
| YKPCFVCQDKSSGYHYGVSACEGCKGFFRRSIQKNMQYTCHRDKNCVINKVTRNRCQYCRLQKCFEVGMSKESVRND | 0.1 ± 0.06 |
| YKPCFVCQDKSSGYHYGVSACEGCKGFFRRSIQKNMIYTCHRDKNCVLNKVTRNRCQYCRLQKCFEVGMSKESVRND | -0.096 ± 0.035 |
| YKPCFVCQDKSSGYHYGVSACERCKGFFRRSIQKNMIYTCHRDKNCVINKVTRNRCQYCRLQKCFEVGMSKESVRND | -0.395 ± 0.049 |
| YKPCFVCQDKSSGYHYGVSACEGCKGFFRRSIQKNMIYTCHRDKPCVINKVTRNRCQYCRLQKCFEVGMSKESVRND | -0.025 ± 0.051 |
| YKPCFVCQDKSSGYHYGVSACEGCKGFFRRSIQKNMIYTCHRDKNCVINKVTRNRCQWCRLQKCFEVGMSKESVRND | 0.107 ± 0.051 |
| YKPCFVCQDKSSGYHYGVSACEGCKGFFRRSIQKNMIYTCHRDKNCVINKVTRNRCQYCRLQKCFEVGMSKESVRNE | 0.125 ± 0.073 |
| YKPCFVCQIKSSGYHYGVSACEGCKGFFRRSIQKNMIYTCHRDKNCVINKVTRNRCQYCRLQKCFEVGMSKESVRND | -0.726 ± 0.24 |
| YKPCFVWQDKSSGYHYGVSACEGCKGFFRRSIQKNMIYTCHRDKNCVINKVTRNRCQYCRLQKCFEVGMSKESVRND | -0.656 ± 0.11 |
| YKPCFVCQDKSSGYHYGVSACEGCKGFFRRSIQKNMIYTCHRDKNCVINKVTRNRCQYCRLQKCFEVGMSKESDRND | 0.094 ± 0.072 |
| YKPCFVCQDKSSGYHYGVSACEGCKGFFRRSIQKNMIYTCHRDKNCVINKVTRNRCQYCRLQKCFEVGMSKESCRND | 0.003 ± 0.064 |
| YKPCFVCQDKSSGYHYDVSACEGCKGFFRRSIQKNMIYTCHRDKNCVINKVTRNRCQYCRLQKCFEVGMSKESVRND | -0.246 ± 0.081 |

Source: the Human Domainome abundance scans (Beltran et al. 2025)
